Patent US20220267462A1 (HARPOON THERAPEUTICS, published 2022)
Where a chain is given by its changes, count along the chain named. Values belong to the binder of their own block, whether it stands above or below them.

Legend:
[1] = molecular target: T1, human EpCAM protein (human, UniProt P16422 24-265, biotinylated in the Octet assays (site not stated)); assay: colorimetric ELISA
T1 construct: also called hu EpCAM; biotinylated human EpCAM protein
T1 sequence: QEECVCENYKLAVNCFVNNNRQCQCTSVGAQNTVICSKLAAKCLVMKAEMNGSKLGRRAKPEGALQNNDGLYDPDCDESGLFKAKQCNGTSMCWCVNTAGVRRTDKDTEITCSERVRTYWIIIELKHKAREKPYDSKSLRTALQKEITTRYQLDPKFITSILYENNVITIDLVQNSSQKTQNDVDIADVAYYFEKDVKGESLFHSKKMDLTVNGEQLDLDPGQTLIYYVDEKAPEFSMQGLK
Text: (§1) A phage display library for expression of heavy variable antibody domains was constructed from circulating B cells. See van der Linden, de Geus, Stok, Bos, van Wassenaar, Verrips, and Frenken. 2000. J Immunol Methods 240:185-195.

[2] = molecular target: T2, cynomolgus EpCAM protein (cynomolgus, UniProt Q1WER1 27-265 (rhesus entry), limits assumed, biotinylated in the Octet assays (site not stated)); assay: colorimetric ELISA
T2 construct: also called cy EpCAM; biotinylated cynomolgus EpCAM protein
T2 sequence: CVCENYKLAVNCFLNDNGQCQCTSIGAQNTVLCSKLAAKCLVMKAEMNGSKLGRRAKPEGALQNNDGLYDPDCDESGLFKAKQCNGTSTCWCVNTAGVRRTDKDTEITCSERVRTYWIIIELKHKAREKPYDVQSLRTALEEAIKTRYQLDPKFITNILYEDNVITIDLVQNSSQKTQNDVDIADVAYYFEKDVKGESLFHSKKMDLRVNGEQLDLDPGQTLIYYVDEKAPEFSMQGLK
Text: as §1

B1: EPL78 (VHH)
VHH: QVQLQESGGGLVQPGGSLRLSCATSANRFNINVMGWYRQAPGQQRELVATINIGGSTDYADSVKGRFTISRDNAKNTVYLQLSDLKPEDTAVYYCNVKLRVSGPTGPNVYWGQGTQVTVSS
Human EpCAM/Control [1]: 17
Cynomolgus EpCAM/Control [2]: 11

B4: EPL2 (VHH)
VHH: QVQLQESGGGLVQPGGSLRLSCAASESISSFIAVGWYRQAPGKERELVAGINRSGFTYYTDSVKGRFSISRDNAKNTVLLQMTSLKPEDTAVYYCNAGGLYFSNAYTQGDYWGQGTQVTVSS
Human EpCAM/Control [1]: 15
Cynomolgus EpCAM/Control [2]: 24

B6: EPL49 (VHH)
VHH: QVQLQESGGGLVQAGGSLRLSCAPSGRTSSIFGMGWFRQAPGKEREFVASINWSGGSTSYADSVKGRFTISRDNAKNEMYLQMNSLKFEDTAVYVCAAAVLTNKPSWNFWGQGTQVTVSS
Human EpCAM/Control [1]: 8
Cynomolgus EpCAM/Control [2]: 4

B8: EPL126 (VHH)
VHH: QVQLQESGGGLVQAGGSLRLSCAASGFIFRAASMGWYRQSPGNERELVATINSGGFTNYADSVKGRFTISRDNAKNTGYLQMNSLKPEDTAVYFCAATFLRSDGQPPIWGQGTQVTVSS
Human EpCAM/Control [1]: 5
Cynomolgus EpCAM/Control [2]: 4

B9: EPL120 (VHH)
VHH: B8 VHH with M34I, G35S, K64L
Human EpCAM/Control [1]: 5
Cynomolgus EpCAM/Control [2]: 4

B10: EPL164 (VHH)
VHH: QVQLQESGGGLVQAGGSLRLSCAASGFIFRAASMDWYRQSPGTQPELVATISSTGFTNYANSVKGRFTISRDNAKNTVYLQMNSLKPEDTAVYFCGATFLRSDGQHSIYGQGTQVTVSS
Human EpCAM/Control [1]: 7
Cynomolgus EpCAM/Control [2]: 34

B14: EPL83 (VHH)
VHH: QVQLQESGGGLVQAGGSLRLSCAVSGSIFSLNTLAWYRQAPGRQRDLIARITGGGTTVYADSVKGRFTISRDNAKNTVYLQMNSLKPEDTAVYYCNLMVRHPSGSTYEYWGQGTQVTVSS
Human EpCAM/Control [1]: 3
Cynomolgus EpCAM/Control [2]: 2

B15: EPL74 (VHH)
VHH: QVQLQESGGGLVQAGGSLRLSCAASGSIFGINAMGWYRQAPGKQRESVAFITIGGNTNYLDSVKGRFTISRDNAKNTVYLQMNGLKPEDTAVYYCNTNPPLILTAGGLYWGQGTQVTVSS
Human EpCAM/Control [1]: 10
Cynomolgus EpCAM/Control [2]: 5

B17: EPL31 (VHH)
VHH: QVQLQESGGGLVHTGGSLRLSCAASGDTFLRYAMGWFRQAPGKEREFVAAITWNGGNTDYAGSLKGRFTISRDNTKNTVYLQMNSLKPEDTAVYYCAADLTFGLASSHYQYDYWGQGTQVTVSS
Human EpCAM/Control [1]: 7
Cynomolgus EpCAM/Control [2]: 6

B18: EPL55 (VHH)
VHH: B17 VHH with H13Q, T14A
Human EpCAM/Control [1]: 5
Cynomolgus EpCAM/Control [2]: 7

B19: EPL97 (VHH)
VHH: QVQLQESGGGLVQAGGSLRLSCAASGIIFRGTTMGWFRQAPGKQRESVASISPLGTTSYSGSVEGRFTVSRDNAKNTLFLQMNSLKSEDTAVYYCNAIQVTNVGPRVYWGQGTQVTVSS
Human EpCAM/Control [1]: 8
Cynomolgus EpCAM/Control [2]: 5

B20: EPL82 (VHH)
VHH: QVQLQESGGGLVQAGGSLKLSCTASGTILSTMAWYRQAPGKQRELVATISRGGTTNYSDSVKGRFAISRDSTKNTVYLQMNSLKPEDTAVYYCNTPLTDYGMGYNWGQGTQVTVSS
Human EpCAM/Control [1]: 4
Cynomolgus EpCAM/Control [2]: 5

B22: EPL58 (VHH)
VHH: QVQLQESGGGLVQAGGSLRLSCAASGPIFSDTIRTMGWYRQAAGKQRELVATIASFPSRTNYVDSVKGRFTISRDIAKNTVYLQMDSLKPEDTAVYYCNVDLASIPTKTYWGQGTQVTVSS
Human EpCAM/Control [1]: 8
Cynomolgus EpCAM/Control [2]: 4

B23: EPL127 (VHH)
VHH: QVQLQESGGGLVQAGGSLRLSCAAPGFAFNDHAILWFRQAPGKEREGVSEICRDGTTYYTDSVKGRFTISSDNAKNTVYLQMNSVKTDDTAVYYCAVDRRRYYCSGNRAFSSDYYYWGQGTQVTVSS
Human EpCAM/Control [1]: 5
Cynomolgus EpCAM/Control [2]: 11

The next lines start with the values.

Human EpCAM/Control [1]: 4
Cynomolgus EpCAM/Control [2]: 3
B2: EPL117 (VHH)
VHH: QVQLQESGGGLVQAGGSLRLSCAASGNIVRMTNMAWYRQAPGKQREFVATISAGGSTTYVDSVKDRFTISRDNTKNTVYLQMNYLKPEDTAVYYCATGSILTNRGAIPGSWGHGTQVTVSS

Human EpCAM/Control [1]: 12
Cynomolgus EpCAM/Control [2]: 8
B3: EPL189 (VHH)
VHH: QVQLQESGGGLVQPGGSLRLSCAASGRINSINTMGWYRQAPGNQRELVAEITRGGTTNYADSVQGRYAISRDNAKNLVYLQMNSLKPEDTDVYYCNAQTFPTFSRPTGLDYWGQGTQVTVSS

Human EpCAM/Control [1]: 13
Cynomolgus EpCAM/Control [2]: 27
B5: EPL43 (VHH)
VHH: B4 VHH with P14T

Human EpCAM/Control [1]: 4
Cynomolgus EpCAM/Control [2]: 4
B7: EPL152 (VHH)
VHH: QVQLQESGGGLVQAGGSLRLSCVHSGSIFRASTMAWYRQAPGKQRELVAQIMSGGGTNYAGSVKGRFTISRDNANNTVYLQMNSLKPEDTAVYYCNAAQITSWGPKVYWGQGTQVTVSS

Human EpCAM/Control [1]: 5
Cynomolgus EpCAM/Control [2]: 4
B11: EPL118 (VHH)
VHH: QVQLQESGGGLVQAGGSLRLSCAASGFIFRAASMGWFRQSPGNERELVATVSSGDFTNYADSVKGRFTISRDNAKNTVYLQMNSLKPEDTAVYFCGATFVRSDGHHTIYGQGTQVTVSS

Human EpCAM/Control [1]: 10
Cynomolgus EpCAM/Control [2]: 10
B12: EPL90 (VHH)
VHH: B11 VHH with G35A, F37Y, T50S, V51I, D55A, G65A, V100L, Y109N
notes: llama anti-EpCAM heavy chain only single domain antibody; tested as E. coli periplasmic extract

Human EpCAM/Control [1]: 3
Cynomolgus EpCAM/Control [2]: 3
B13: EPL138 (VHH)
VHH: B11 VHH with G35D, F37Y, S40F, L47S, V48I, V51I, D55G, V100L, Y109N

Human EpCAM/Control [1]: 5
Cynomolgus EpCAM/Control [2]: 2
B16: EPL109 (VHH)
VHH: QVQLQESGGGLVQPGGSLRLSCASSGFTLDDYTIGWFRQAPGKEREGVSCISRRDDSTYYADSVKGRFTISRDNAKNTVDLQMISLRPEDTAVYYCAATPRSYTLRCLGKFDFQGQGTQVTVSS

Human EpCAM/Control [1]: 12
Cynomolgus EpCAM/Control [2]: 9
B21: EPL10 (VHH)
VHH: QVQLQESGGGLVQAGGSLRLSCAASGSVFRANVMGWYRQAPGKQHELVARIDPGGTTTYADPVKGRFTISRDNAKKTVYLQMNSLKPDDTAVYYCNAIILLSGGPKDYWGQGTQVTVSS
